Patent US20170233449A1

Target: type I interferon receptor (IFNAR1 and IFNAR2) on cells (human) (UniProt P17181)
Test: cell-based or functional assay

type I interferon receptor (IFNAR1 and IFNAR2) on cells (human), sequence (P17181 28-557, chain 1 of 2): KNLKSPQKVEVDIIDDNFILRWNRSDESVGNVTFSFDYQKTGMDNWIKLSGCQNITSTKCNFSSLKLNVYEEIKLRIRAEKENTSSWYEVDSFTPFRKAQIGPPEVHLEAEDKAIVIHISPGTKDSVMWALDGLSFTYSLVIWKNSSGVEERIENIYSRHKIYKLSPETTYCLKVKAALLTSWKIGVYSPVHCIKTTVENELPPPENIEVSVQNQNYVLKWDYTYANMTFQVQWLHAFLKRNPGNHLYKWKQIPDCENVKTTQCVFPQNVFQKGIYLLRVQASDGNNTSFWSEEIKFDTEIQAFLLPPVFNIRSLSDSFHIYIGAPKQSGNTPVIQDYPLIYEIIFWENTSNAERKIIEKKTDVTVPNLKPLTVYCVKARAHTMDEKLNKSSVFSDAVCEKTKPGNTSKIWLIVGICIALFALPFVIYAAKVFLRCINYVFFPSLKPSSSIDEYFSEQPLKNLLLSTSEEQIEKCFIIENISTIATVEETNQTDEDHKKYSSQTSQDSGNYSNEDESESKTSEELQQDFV
type I interferon receptor (IFNAR1 and IFNAR2) on cells (human), sequence (P48551 27-515, chain 2 of 2, further chain): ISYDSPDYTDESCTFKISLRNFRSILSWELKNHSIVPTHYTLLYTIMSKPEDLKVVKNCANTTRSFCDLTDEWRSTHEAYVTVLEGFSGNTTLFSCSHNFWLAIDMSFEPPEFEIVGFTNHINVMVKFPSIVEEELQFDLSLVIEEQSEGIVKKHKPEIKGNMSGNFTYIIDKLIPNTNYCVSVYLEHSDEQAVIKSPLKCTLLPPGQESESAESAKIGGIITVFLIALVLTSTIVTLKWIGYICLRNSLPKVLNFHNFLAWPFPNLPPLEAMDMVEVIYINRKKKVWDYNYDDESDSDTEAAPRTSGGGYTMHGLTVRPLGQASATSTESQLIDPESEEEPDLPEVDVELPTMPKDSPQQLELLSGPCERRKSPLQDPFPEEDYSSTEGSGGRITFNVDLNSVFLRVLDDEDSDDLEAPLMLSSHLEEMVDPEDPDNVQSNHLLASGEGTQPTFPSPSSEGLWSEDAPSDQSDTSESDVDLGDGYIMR

EC50 Off Target (pM) iLite: 0.799 pM
EC50 On Target (PM) ARP-1: 0.0105 nM
Substance: human interferon-β1 (IFNβ), free wild type (from UniProt P01574 22-187) (ligand)
